This note sets out measurements from US20140249091A1 (BIOUSIAN BIOSYSTEMS, published 2014).

Experiment [1] addresses T1, human mu opioid receptor (human, UniProt P35372 1-400).
T1 construct: whole, on cells; Assayed as CHO cell membranes; also called hMOR; MOR
The experiment can be described thus: cell-based or functional assay.

For experiment [2], the target named is T2, human delta opioid receptor (human, UniProt P41143 1-372). The experiment can be described thus: cell-based or functional assay.
T2 sequence (P41143 whole entry, stated change not applied): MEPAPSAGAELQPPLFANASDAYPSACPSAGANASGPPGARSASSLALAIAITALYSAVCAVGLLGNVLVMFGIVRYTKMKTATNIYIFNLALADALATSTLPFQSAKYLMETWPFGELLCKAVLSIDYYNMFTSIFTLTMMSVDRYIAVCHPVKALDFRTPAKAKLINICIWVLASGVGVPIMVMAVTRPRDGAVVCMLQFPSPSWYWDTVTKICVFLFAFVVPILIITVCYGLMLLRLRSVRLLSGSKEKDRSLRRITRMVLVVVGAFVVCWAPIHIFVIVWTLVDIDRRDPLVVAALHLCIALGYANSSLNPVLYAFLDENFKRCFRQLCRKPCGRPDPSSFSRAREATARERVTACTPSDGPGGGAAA
Experiment [3] concerns the target T1, human mu opioid receptor. The experiment can be described thus: competition vs [3H]DAMGO, hMOR CHO cell membranes (summary table).
The target of experiment [4] is human kappa opioid receptor (human) (UniProt P41145). Briefly: inhibition of [3H]U69,593 binding at 10 uM peptide, hKOR CHO cell membranes.
Sequence of human kappa opioid receptor (human) (P41145 whole entry): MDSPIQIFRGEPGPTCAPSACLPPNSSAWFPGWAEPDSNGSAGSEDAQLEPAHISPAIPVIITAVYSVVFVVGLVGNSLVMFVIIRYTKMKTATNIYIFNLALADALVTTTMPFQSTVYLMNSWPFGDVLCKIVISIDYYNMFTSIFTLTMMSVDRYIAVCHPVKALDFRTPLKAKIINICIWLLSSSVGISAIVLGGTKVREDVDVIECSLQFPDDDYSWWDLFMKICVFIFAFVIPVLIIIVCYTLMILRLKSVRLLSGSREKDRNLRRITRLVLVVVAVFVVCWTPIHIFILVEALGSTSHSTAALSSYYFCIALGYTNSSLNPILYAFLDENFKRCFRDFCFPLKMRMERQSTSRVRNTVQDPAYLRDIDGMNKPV
Experiment [5] has as its target T2, human delta opioid receptor. The experiment can be described thus: radioligand competition; reference hMOR. On the technique in general: Loss of bound radioactivity is the signal in a displacement assay; it reports binding, not function.
Experiment [6] shares this target. Briefly: competition vs [3H]naltrindole, hDOR CHO cell membranes (summary table).
For experiment [7], the target named is T1, human mu opioid receptor. Briefly: competition vs 0.25 nM [3H]DAMGO, hMOR CHO cell membranes.
In experiment [8] the target is T2, human delta opioid receptor. Briefly: competition vs 0.2 nM [3H]naltrindole, hDOR CHO cell membranes.
The target is the same in experiment [9]. Briefly: competition vs [3H]naltrindole, hDOR CHO cell membranes; reference DPDPE.
The target is the same in experiment [10]. The experiment can be described thus: competition vs 0.2 nM [3H]naltrindole, hDOR CHO cell membranes. The source holds these as a separate data set.
The target of experiment [11] is T1, human mu opioid receptor. Briefly: competition vs 0.25 nM [3H]DAMGO, hMOR CHO cell membranes. This is another data set of the same source.
For experiment [12], the target named is human kappa opioid receptor (human) (UniProt P41145). Briefly: inhibition of [3H]U69,593 binding at 10 uM peptide, hKOR CHO cell membranes. This is another data set of the same source.

Like-named read-outs stand apart in the source and are kept apart here. Non-standard residues stand in square brackets, D forms with d. *: point of attachment. βGlc = OC[C@H]1O[C@@H](*)[C@H](O)[C@@H](O)[C@@H]1O; Nle = CCCC[C@H](N)C(=O)O; Nva = CCC[C@H](N)C(=O)O

T1 sequence (P35372 whole entry): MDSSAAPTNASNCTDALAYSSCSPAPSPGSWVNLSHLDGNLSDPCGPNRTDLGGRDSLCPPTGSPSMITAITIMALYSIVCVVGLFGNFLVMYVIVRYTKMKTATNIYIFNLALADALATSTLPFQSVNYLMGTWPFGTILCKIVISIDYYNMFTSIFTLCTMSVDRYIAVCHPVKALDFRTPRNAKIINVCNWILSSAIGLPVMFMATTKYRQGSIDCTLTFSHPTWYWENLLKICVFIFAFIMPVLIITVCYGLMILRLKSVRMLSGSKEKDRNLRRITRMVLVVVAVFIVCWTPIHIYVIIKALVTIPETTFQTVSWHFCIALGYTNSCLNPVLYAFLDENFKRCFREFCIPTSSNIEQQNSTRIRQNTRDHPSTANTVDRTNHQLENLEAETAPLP

In the case of “11009 (H2N-YaFE-Nle-Nle-T-amide) (peptide)”, the EMax (%), agonist properties, [35S]GTPγS binding came out at 42% with human mu opioid receptor [1] and 67% in [2]. Also, the EC50 (nM), agonist properties, [35S]GTPγS binding in [2] came to 12 nM.

As for DPDPE (peptide), the Ki in the experiment with human mu opioid receptor [3] stood at 180 nM.

B1: 11008 = Deltorphin B4, H2N-YaFE-Nle-Nle-T(beta-D-Glc)-amide (peptide)
peptide: H-Y[dA]FE[Nle][Nle]T(βGlc)-NH2
SMILES: CCCC[C@H](NC(=O)[C@H](CCC(=O)O)NC(=O)[C@H](Cc1ccccc1)NC(=O)[C@@H](C)NC(=O)[C@@H](N)Cc1ccc(O)cc1)C(=O)N[C@@H](CCCC)C(=O)N[C@H](C(N)=O)[C@@H](C)O[C@@H]1O[C@H](CO)[C@@H](O)[C@H](O)[C@H]1O
Turning to B1, the Max Inhib at 10 uM (%) in experiment [4] was 2.9%. Moreover, the “Selectivity Delta:Mu” value in experiment [5] is 79 fold (Ki mu over Ki delta). Besides, the Ki in experiment [6] turned out to be 14 nM; with human mu opioid receptor [7], 1100 nM; in experiment [8], 14 nM; with human mu opioid receptor [3] it was 1100 nM. Besides, the values for the IC50 (in the experiment with human mu opioid receptor [7]; in experiment [8]) were 1500 nM and 42 nM, respectively. In experiment [2], the “EC50 (nM), agonist properties, [35S]GTPγS binding” value stood at 12 nM. For the same molecule, the “fold lower affinity than DPDPE” value in [9] was approximately 3 fold.

B2: 11005 = Deltorphin B1, H2N-YaFE-Nva-Nva-S(beta-D-Glc)-amide (peptide)
peptide: H-Y[dA]FE[Nva][Nva]S(βGlc)-NH2
SMILES: CCC[C@H](NC(=O)[C@H](CCC)NC(=O)[C@H](CCC(=O)O)NC(=O)[C@H](Cc1ccccc1)NC(=O)[C@@H](C)NC(=O)[C@@H](N)Cc1ccc(O)cc1)C(=O)N[C@@H](CO[C@@H]1O[C@H](CO)[C@@H](O)[C@H](O)[C@H]1O)C(N)=O
notes: also called glycopeptide 11005
Regarding B2, the “Selectivity Delta:Mu” value in experiment [5] was 36 fold (Ki mu over Ki delta). The figures for the IC50 (in experiment [10]; with human mu opioid receptor [11]) were 61 nM and 1000 nM, respectively. Besides, the Ki in experiment [10] amounted to 20 nM; in experiment [6], 20 nM; with human mu opioid receptor [11], 710 nM; with human mu opioid receptor [3], 710 nM. In [12], the Max Inhib at 10 uM (%) worked out at 5.3%.

The Ki is a dissociation constant, usually derived from enzyme kinetics or from competition with a known ligand. A high value points to a looser hold on the target. The term IC50 denotes the concentration at which inhibition is half-maximal. Read a low IC50 as inhibition by little substance.
